What was measured:
[1] = biological target: GP[change] with 12D insertion after residue A309 (Ebola virus)
[2] = biological target: GP[change] with 8D insertion after residue A309 (Ebola virus)

Substance: mAb114 (antibody)
- fold increase in binding against WT-GPΔmucin [1]: 2 fold
- fold increase in binding against WT-GPΔmucin [2]: 2 fold
